The text below walks through data of patent publication US20090158448A1 (NATIONAL UNIVERSITY CORPORATION TOKYO MEDICAL AND DENTAL …, published 2009).

Common to all, as to experiment: co-immunoprecipitation (anti-myc) and western, 293T cells
Assay [1] addresses T1, mutant MuSK (NA), myc tag (mouse, UniProt Q61006 22-868, limits assumed).
T1 construct: Mutation in the NPXY PTB domain target motif; also called NA mutant; not shown: myc tag
T1 sequence: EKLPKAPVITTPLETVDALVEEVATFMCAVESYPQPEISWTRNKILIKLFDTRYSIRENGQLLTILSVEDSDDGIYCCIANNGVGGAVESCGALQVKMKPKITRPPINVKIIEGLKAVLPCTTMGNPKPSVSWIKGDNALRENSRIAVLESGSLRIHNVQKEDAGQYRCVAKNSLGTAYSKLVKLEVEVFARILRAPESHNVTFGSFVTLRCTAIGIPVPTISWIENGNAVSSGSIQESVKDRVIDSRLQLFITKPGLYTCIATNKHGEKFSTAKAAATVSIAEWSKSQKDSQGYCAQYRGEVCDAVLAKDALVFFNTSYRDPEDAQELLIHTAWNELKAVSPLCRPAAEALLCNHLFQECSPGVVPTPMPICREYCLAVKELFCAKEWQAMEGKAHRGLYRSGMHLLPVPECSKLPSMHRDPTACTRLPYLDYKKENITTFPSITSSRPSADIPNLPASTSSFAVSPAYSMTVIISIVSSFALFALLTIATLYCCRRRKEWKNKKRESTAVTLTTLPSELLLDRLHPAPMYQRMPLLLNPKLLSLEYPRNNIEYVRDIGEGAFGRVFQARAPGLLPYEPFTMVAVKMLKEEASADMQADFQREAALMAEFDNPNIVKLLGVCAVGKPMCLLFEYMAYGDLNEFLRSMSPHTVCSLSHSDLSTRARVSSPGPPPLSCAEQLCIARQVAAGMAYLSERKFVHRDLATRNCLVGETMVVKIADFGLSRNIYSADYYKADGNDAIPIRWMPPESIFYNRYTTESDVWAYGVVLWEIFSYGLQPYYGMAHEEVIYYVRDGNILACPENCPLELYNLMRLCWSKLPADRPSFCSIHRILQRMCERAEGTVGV
As for the experimental part:
(§1) Immunoprecipitation of whole cell lysate (WCL) obtained from each transformed cell strain was carried out using an anti-myc tag antibody, and thus an immunoprecipitate (IP: αmyc) was obtained. Then, a western blot analysis was performed for the whole cell lysate and immunoprecipitate. The antibodies used were the same as the antibodies described above.
(§2) Then, immunoprecipitation of whole cell lysate (WCL) obtained from each transformed cell strain was carried out, and a western analysis was performed on the resulting immunoprecipitate (IP: αmyc). The antibodies used were the same as the antibodies described above.

Assay [2] has as its target T2, mutant MuSK (YF), myc tag (mouse, UniProt Q61006 22-868, limits assumed).
T2 construct: Mutation in the NPXY PTB domain target motif; also called YF mutant; not shown: myc tag
T2 sequence: T1 sequence with A529N, Y532F
The method, then: as §1, §2

The target in assay [3] is T3, wild type (WT) mouse MuSK fused to myc tag (mouse, UniProt Q61006 22-868, limits assumed).
T3 construct: also called wild type MuSK (WT); muscle-specific tyrosine kinase; not shown: myc tag
T3 sequence: T1 sequence with A529N
The method, then: as §1, §2

Positions count from the first letter of the chain named.

B1: wild type human Dok-7 protein (other)
chain: MTEAALVEGQVKLRDGKKWKSRWLVLRKPSPVADCLLMLVYKDKSERIKGLRERSSLTLEDICGLEPGLPYEGLVHTLAIVCLSQAIMLGFDSHEAMCAWDARIRYALGEVHRFHVTVAPGTKLESGPATLHLCNDVLVLARDIPPAVTGQWKLSDLRRYGAVPSGFIFEGGTRCGYWAGVFFLSSAEGEQISFLFDCIVRGISPTKGPFGLRPVLPDPSPPGPSTVEERVAQEALETLQLEKRLSLLSHAGRPGSGGDDRSLSSSSSEASHLDVSASSRLTAWPEQSSSSASTSQEGPRPAAAQAAGEAMVGASRPPPKPLRPRQLQEVGRQSSSDSGIATGSHSSYSSSLSSYAGSSLDVWRATDELGSLLSLPAAGAPEPSLCTCLPGTVEYQVPTSLRAHYDTPRSLCLAPRDHSPPSQGSPGNSAARDSGGQTSAGCPSGWLGTRRRGLVMEAPQGSEATLPGPAPGEPWEAGGPHAGPPPAFFSACPVCGGLKVNPPP
notes: also called WT; polypeptide of the present invention
On to B1, for which the binding result in assay [1] and in assay [2] was “no binding” in each case.

B2: mutant Dok-7 (RA) (other)
chain: B1 chain with R158A, R159A, R174A
notes: also called RA of Dok-7
For B2, in assay [3], the binding result is “no binding”.
